Measured values from the nanobody polyreactivity screen of Harvey et al. (2022).

assay: yeast display, Sf9 membrane polyspecificity reagent, FACS + sequencing; frameworks hold sequencing errors
In short: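 In a synthetic yeast display library (Saccharomyces cerevisiae BJ5465), nanobody expression was induced with galactose for 36–48 hours. FACS gates were set low and high (top ~1%) using anti-HA fluorescence for expression and streptavidin fluorescence for binding of the Sf9 membrane reagent. Each polyreactivity label is drawn from the gate of origin.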

Sequence | polyreactivity (PSR sort gate)
QVQLVESGGGLVQAGGSLRLSCAASGFIFRSYVMGWYRQSPGKERELVAAISKSGGSTYYADSVKGRFTISRDNAKTTVYLQMNSLKPEDTAVYYCAAGTTRTGYRTRYDYWGQGTQVTVSS | high polyreactivity
QVQLVESGGGLVQAGGSLRLSCAASGSTFYDYAMGWYRQAPGKERELVAAISRSGGSTYYADSVKGRFTISRDNAKNTVYLQRNSLKPEDTAVYYCAASRATLLRYGYWGQGTQVTVSS | low polyreactivity
QVQLVESGGGLVQAGGSLRLSCAASGRIFKRYVMGWYRKAPGKERELVAAITWRGGTYYADSVKGRFTISRDNAKNTVYLQMNSLKPEDTAVYYCAADTYFSGAGGQAYQYDYWGLGTQVTVSS | high polyreactivity
QVHLVESGGGLVQAGGSLRLSCAASGIIFAPNAMGWYRQAPGKEREVVAGISSRGGSTYYADSVKGRFTISRDNAKNTVYLQMNSLKPEDTAVYYCAADLSYNPDEYWGQGTQVTVSS | low polyreactivity
QVQLVESGGGLVQAGGSLRLSCAASGRTFGVYAMGWYRQAPGKERELVASISRSGGSTYYADSVKGRFTISRDNAKNTVYLQMNSLKPEDTAVYYCAAVYKRGMDYWGQGTQVTVSS | high polyreactivity
QVQLVESGGGLVQAGGSLRLSCAASGFTFSSYAMGWYRQEPGKERELVAAISTSGASTYYADSVKGRFTISRDNAKNTVYLQMNSLKPEDTAVYYCNVPQWHRWYRYPGEDYDYWGQGTQVTVSS | high polyreactivity
QVQLVESGGGLDQAGGSLRLSCAASGFIFQRYTLGWYRQAPGKERELVAAITSGGRTYYADSVKGRFTISRDNAKNTVYLQMNSLKPEDTAVYYCNARGRASRHSGYDYWGQGTQVTVSS | high polyreactivity
QVQLVESGGGLVQAGGSLRLSCASSGSTFPRYAMGWYRPAPGKETELVAAISSSGRTYYADSVKGRFTISRDNAKNTVFLQMNSLKPEDTAVYYCNAPVARGEASYYWGQGTQVTVSS | high polyreactivity
QVQLVDSGGGLVQAGGSLRLSCAASGGTLRYYAMGWYRQAPGTEREFVASISRSGGSTYYADSVKGRFTISRDTAKYTVYLQMNSLKPVDTAVYYCADVKSSGSPRARYGYWGQGTQVTLSS | high polyreactivity
QVQLVESGGGLVQAGGSLRLSCAASGITFKAYAMGWYRQAPGKERELVAAINTSGARTYYADSVKGRFTISRDNAKNTVYLQMNSLKPEDTAVYYCNARLHQQEGDYWGQGTQVTVSS | low polyreactivity
QVQLVDTGGGLVQAGGSLRLSCAASGLTFQQYAMGWYRQAPRKERELVAAITSDGASTNYADSVKGRFTNSRDNAKNTVYLQMNSLKPEDCAVYYCAAGRRSRQYRYVYWGQGTQVTVSS | high polyreactivity
QFQLVESGGGLVQAGGSLRLSCAASGSTFYPNSMGWYRQAPGKEMELVAAISSGGSTSYADSVKGRFTISRDNAKNTVYLQMNSLKPEDTAVYYCNASSPGAVPVYDYDYWGQGTQVTVSS | low polyreactivity
QVQLVESGGGLVQAGGSLRLSCDASGSTSKTYAMGWYRQAPGKERELVAVISYGGTTYYADSVKGRFTISRDNAKNTVYLQLNSLKPEDTAVYYCAARAWHRRGVPHYYWGQGSQVTVSS | high polyreactivity
QVQLVESGGGLVQAGGRLRLSCAASGSIFFHYAMGWYRQAPGKERERVAAITWDGGSTYYADSVKGRFTISRDNAKNTVYLQMNSLKPEDTAVYYCNADQDLSTDEDEYWGQGTQVTVLS | low polyreactivity
QVQLVESGGGLVQAGGSLRLSCAASGSTFIWNAMGWYRQAPGKERELVATITGSGDRTTYADSVKGRFTISRDNAKNTVYLQMNSLKPEDTAVYYCAADAYRWWVRYDYWGQGTQVTVSS | low polyreactivity
QVQLVESGGGLVQAGGSLRLSCAASGFTFYSNAMGWYRQAPGKERELGAAITWSTGNTYYADSVKGRFTISRDNAKNTVYLQMNSLKPEDTAVYYCAARSHTGYYPPSYYWGQATQVTVSS | high polyreactivity
QVQLVESGGGLVQAGGSLRLSCAASGFIIANNAMGWYRQAPGKERELVASIRTRGGSTYYADSVKGRFTISRDNAKNTVYLQMNSLKPEDTAVYYSAARPFPRRYDYWGQGTQVTVSS | low polyreactivity
QVQLVESGGGLVQAGGSLRLSCAASGRIFPSYAMGWYRQAPGKERELVAAISDSDGSTYYADSVKGRFTISRDNAKNTVYLQMNSLKPEDTAVYYCAAEGSYPAYDYWGQGTQVTVSS | low polyreactivity
QVQLVESGGGLVQAGGSLRLSCAASGSTFISYAMGWYRQAPGKERELVAAIRYRDGRTYYADSVKGRFTNSRDNAKNTVYLQMISLKPEDTAVYYCAAKYRGLYSGMYYWGQGTQVTVSS | high polyreactivity
QVQLVESGGGLVQAGGSLRLSCAASGRIFGYYTMGWYRQAPGKERELVAAISSGGTTYYADSVKGRFTISRDNAKNTVYLQMNSLKPEDTAVYYCAADYYNTYGYDYWGQGTQVTVSS | low polyreactivity
QVQLVESGGGLVQAGGSLRLSCAASGSTFTGYAMGWSRQAPGKEREIVATITKRGGRTYYADSVKGRFTISRDNAKNTVYLQMNSLKPEDTAVYYCARDQGKLVVPYAYWGQGTQVTVSS | high polyreactivity
QVQLVESGGGLVQAGGSLRLSCAASGFIFSSNAMGWYRQAPGKERELVAAITSSGGGTYYADSVKGRFTISRDNAKNTVYLQMNSLKPEDTAVYYCNAAYKYAIPSYGYWGQGTQVTVSS | low polyreactivity

Sequence | polyreactivity (PSR sort gate)
QVQLVESGGGLVQAGGSLRLSCAASGSIFKFYAMGWYRQAPGKERELVAAISQSGGRTYYADSVKGRFTISRDNAKNTVYLQMNSLKPEDTAVYYCAKSVFPVYGRPSNLWFNYWGQGTQVTVSS | high polyreactivity
QVQLVESGGGLVQAGGSLRLSCAASGSIFGANVMGWYRQAPGKERELVAGITGSGGSTYADSVKGRFTISRDNAKNTVYFQMNSLKPEDTAVYYCNADTQFALVADFDYWGQGTQVTVSS | low polyreactivity
QVQLLESGVGLVQAGGSLRLSCAASGNTFYHYAMGLYRQAPGKERELVAAISLSGGSTYYADSVKGRFTISRDNAKNTVYLQMNSLKPEDTAVYYCAADIFYYSSSYGYWGQGTQVTVST | low polyreactivity
QVQLVESGGGLVQAGGSLRLSSAASGFICATYSMGWYRQAPGKERELVASIRKSGGSTYYADSVKGRFTISRDNAKNTVYLQMNSLKPEDTAVYYCAKVYRYYPKYNYWGQGTQVTVSS | high polyreactivity
QVQLVESGGGLVQAGGSLRLSCAASGRIFLVNAMGWDRQAPGKERELVAAINFISGSTYYADSVKGRFTISRDNAKNTVYLQMNSLKPEDTAVYYCAAYSYWSYVQRYNLEYDYWGQGTQVTVSS | low polyreactivity
QVQLVESGGGLVQAGGSLRLSCAASGRTFTWNAMGWYRQAPGKERELVADITNNGGSTYYADSVKGRFTISRDNAKNTVYLQMNSLKPEDTAVYYCAKRRNYWFSFDYWGQGTQVTVSS | low polyreactivity
QVQLVESGGGLVQAGGSLRLSFAASGRTFDRNAMGWYRQAPGKERELVARITIDGSTNYADSVKGRFTISRDNAKNTVYLQMNSLKPEDTAVYYCATDQLSLSWYFRPYDYGYWGQGTQVTVSS | high polyreactivity
QVQLVESGGGLVQAGGSLRLSCAASGRIVRNAIGWYRQAPGKERELVAAISRSGGSTYYADSVKGRFTISRDNAKNTVYLQMNSLKPEDTAVYYCDKRSTSQSLQGEYWGQGTQVTVSS | high polyreactivity
QVQLVESGGGLVQAGGSLRLSCAASGFIFASYTMGRTRQAPGKERELVAAISRAGSTYYADSVKGRFTISRDNAKNTVYLQMNSLKPEDTAVYYCNAVSWRTSRYDYWGQGTQVTVSS | high polyreactivity
QVQLVESGGGLVQAGGILRLSCAASGRTFSWNAMGWYRQAPGKERELVAAISNSGGSTYYADSVKGRFTISRDNAKNTVFLQMNSLKPEDTAVYYCAVYRYYGFSLWYDYWGQGTQVTVSS | low polyreactivity
QVQLVESGGGLVQAGGSLRLSCAASGSIFVGNAMGWYRQAPGKERELVAAISSSGGSTYYADSVKGRFTISRDYAKNSVYLQMNSLKPEYTAVYDCAADTYSTSGYYYWGQGTQVTVSS | low polyreactivity
QVQLVESGGGLVQAGGSLRLSCAASGSTFGVYAMVWYRQAPGKERELVAAINYSGRTYYADSVKGRFTISRDNAKNTVYLQMNSLKPEDTAVYYCAARIIVDDVGTKYYYWGQGTQVTVSS | high polyreactivity
QVQLVESGGGLVQAGGSLRLSCAASGRIFNHYAMGWYRQAPGKERELVATISATGGSTYYADSVKGRFTISRDNAKNTVYLQMNSLNPEDTAVYYCNAGHLWYWRTRSARRVGMVYWGQGTQVTVSS | low polyreactivity
QVQLVESGGGLVQAGGSLRIICAASGRTFSYYAMGWYRQAPGKERELVAAITAGGNTYYADSVKGRFTISRDNAKNTVYLQMNSLKAEDTAVYYCAATYYWAWGGVYHSEFDYWGQGTQETVSS | low polyreactivity
QVQLVESGGGLVQAGGSLRLSCAASGLIFGYNAMGWYRQAPGKEREFVAGISVIDGRTYYADSVKGRFTISRDNAKNTVYLQMNSLIPEDTAVYYCAADRWYKYYFLTYGYWGQGTQVTVSS | low polyreactivity
QVQLVESGGCLVQAGGSLRLSCAASRFTFTYYAMGWYRHAPGKESELVAAITRRGGRTYYAYSVKGRFTISRDNAKNTVYLQMNSLKPEDTAVYYCNADEYGGSTGRKGRYNYWGQGTQVTVSS | low polyreactivity
QVQRVESGGRLVQAGGSLRLSCAPSGFTFQDYAMGWSRQAPGKERELVAAISRNGGSTYYADSVKGRFTISRDNAKNTVYLQMNSLKPEDTAVYYCNADSHHRRGSRDYCGQGTQVTVSS | low polyreactivity
QVQLVESGGGLVQAGGSLRLSCAASGGTLYRYAMGWYRQAPGKERELVAGISSSGGRTYNADSVKGRFTISRDNAKNTVYLQMNSLIPEDTAVYYCAKYWVSSYDYWGQGTQVTVSS | high polyreactivity
HGQLVESGGGLVQAGGSLRLSCAASGVTFSYYAMGWYRQGPGKDRELVAAITSSAGSTYYADSVKGRFTISRDNAKNTVYLQMNSLKPEDSALYYCNAVYSKLNGGYDYWGQGTQVTVSS | low polyreactivity
QVQLVESGGGLVQAGGSLRLSCAASGLTFTTYTMGWYRQAPGKERELVAAISSRGGSTYYADSVKGRFTISRDNAKNTVYLQMNRLKPEDTAVYYCNAPRPHRMDWGQGTQVTVSS | high polyreactivity
QVQLVESGGGLVQAGGSLRLSCAASGSIFESNGMGWYRPAPGKERELVASISNGDITYYADSVKGRFTISRDNAKNTVYLQMISVKPEYTAVYYCAATLYRNYVIFRYDYWGQGTQLTVSS | low polyreactivity
